In article PMC10675231, “Electrochemiluminescence Aptasensor with Dual Signal Amplification by Silica Nanochannel-Based Confinement Effect on Nanocatalyst and Efficient Emitter Enrichment for Highly Sensitive Detection of C-R”:

T1: C-reactive protein (CRP) (human, UniProt P02741 19-224)
T1 sequence: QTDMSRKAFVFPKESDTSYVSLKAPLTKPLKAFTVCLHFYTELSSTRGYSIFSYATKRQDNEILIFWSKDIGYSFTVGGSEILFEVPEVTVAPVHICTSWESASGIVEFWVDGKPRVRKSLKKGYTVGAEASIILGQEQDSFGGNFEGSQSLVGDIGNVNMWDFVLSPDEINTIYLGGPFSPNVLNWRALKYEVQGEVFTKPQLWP

T2: alpha-fetoprotein (AFP) (UniProt P02771 19-609)
T2 sequence: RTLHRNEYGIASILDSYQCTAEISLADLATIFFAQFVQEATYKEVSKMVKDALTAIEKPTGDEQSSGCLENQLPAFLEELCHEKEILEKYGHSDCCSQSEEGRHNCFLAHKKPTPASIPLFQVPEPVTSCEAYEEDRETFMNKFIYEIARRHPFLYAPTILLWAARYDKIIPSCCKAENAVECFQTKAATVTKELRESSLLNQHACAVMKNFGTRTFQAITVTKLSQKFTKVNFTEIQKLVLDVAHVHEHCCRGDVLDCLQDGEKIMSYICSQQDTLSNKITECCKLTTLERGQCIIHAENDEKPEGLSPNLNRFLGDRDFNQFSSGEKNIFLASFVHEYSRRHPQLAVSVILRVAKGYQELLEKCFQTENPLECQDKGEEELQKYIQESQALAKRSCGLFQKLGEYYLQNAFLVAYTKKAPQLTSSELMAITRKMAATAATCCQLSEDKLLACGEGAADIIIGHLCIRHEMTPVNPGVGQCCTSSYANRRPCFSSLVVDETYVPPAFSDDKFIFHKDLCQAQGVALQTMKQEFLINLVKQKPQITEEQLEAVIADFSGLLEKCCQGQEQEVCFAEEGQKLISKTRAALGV


Experiments:
C-reactive protein (CRP) [1] = target: T1, C-reactive protein (CRP); assay: electrochemiluminescence aptasensor; no significant signal change; 0.01 M phosphate buffer (KH2PO4/Na2HPO4) pH 7.4; CRP incubation 80 min; binding temperature not stated; conditions: protein: recombinant; chain copies: 5
alpha-fetoprotein (AFP) = target: T2, alpha-fetoprotein (AFP); assay: electrochemiluminescence aptasensor; 100 ng/mL AFP; change very minimal vs 10 ng/mL CRP; 0.01 M phosphate buffer (KH2PO4/Na2HPO4) pH 7.4; CRP incubation 80 min; binding temperature not stated; conditions: protein: commercial
[2] = target: cancer antigen 15-3 (CA15-3) (UniProt P15941 24-1097); assay: electrochemiluminescence aptasensor; 100 ng/mL CA15-3; change very minimal vs 10 ng/mL CRP; 0.01 M phosphate buffer (KH2PO4/Na2HPO4) pH 7.4; CRP incubation 80 min; binding temperature not stated; conditions: protein: commercial
C-reactive protein (CRP) [3] = target: T1, C-reactive protein (CRP); assay: electrochemiluminescence aptasensor; Ru(bpy)3 2+/TPrA; BSA-blocked; linear 10 pg/mL-1 ug/mL, LOD 7.4 pg/mL; 0.01 M phosphate buffer (KH2PO4/Na2HPO4) pH 7.4; CRP incubation 80 min; binding temperature not stated; conditions: protein: recombinant; chain copies: 5

Sequence of cancer antigen 15-3 (CA15-3) (P15941 24-1097): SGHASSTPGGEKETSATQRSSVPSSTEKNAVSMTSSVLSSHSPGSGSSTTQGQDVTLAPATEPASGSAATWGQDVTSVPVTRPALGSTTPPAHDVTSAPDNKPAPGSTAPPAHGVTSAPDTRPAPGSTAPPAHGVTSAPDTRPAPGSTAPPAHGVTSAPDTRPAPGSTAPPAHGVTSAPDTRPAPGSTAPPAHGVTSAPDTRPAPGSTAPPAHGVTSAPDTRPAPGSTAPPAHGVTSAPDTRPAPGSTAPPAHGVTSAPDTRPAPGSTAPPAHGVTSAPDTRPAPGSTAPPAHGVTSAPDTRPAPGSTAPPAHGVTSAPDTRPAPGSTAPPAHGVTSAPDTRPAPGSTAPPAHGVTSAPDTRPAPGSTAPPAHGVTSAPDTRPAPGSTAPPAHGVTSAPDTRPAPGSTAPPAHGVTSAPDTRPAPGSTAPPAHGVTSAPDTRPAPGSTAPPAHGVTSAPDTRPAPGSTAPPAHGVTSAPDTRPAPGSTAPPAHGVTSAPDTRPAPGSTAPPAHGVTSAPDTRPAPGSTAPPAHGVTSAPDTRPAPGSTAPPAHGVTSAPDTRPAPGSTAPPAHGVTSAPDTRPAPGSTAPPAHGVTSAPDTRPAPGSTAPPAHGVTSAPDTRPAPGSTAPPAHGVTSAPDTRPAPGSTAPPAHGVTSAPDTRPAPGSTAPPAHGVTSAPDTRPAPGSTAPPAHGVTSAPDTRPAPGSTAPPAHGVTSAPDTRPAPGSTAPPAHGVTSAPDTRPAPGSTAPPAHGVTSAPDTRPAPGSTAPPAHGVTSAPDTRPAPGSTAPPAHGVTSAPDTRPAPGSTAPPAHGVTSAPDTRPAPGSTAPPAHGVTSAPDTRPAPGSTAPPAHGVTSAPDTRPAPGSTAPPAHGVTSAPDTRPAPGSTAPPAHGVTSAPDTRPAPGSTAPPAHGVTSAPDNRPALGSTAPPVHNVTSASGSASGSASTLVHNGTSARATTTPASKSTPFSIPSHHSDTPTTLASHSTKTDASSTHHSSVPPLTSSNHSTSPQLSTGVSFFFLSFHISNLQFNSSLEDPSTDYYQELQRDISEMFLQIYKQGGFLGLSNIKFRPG

Row | Binder | binding result (C-reactive protein (CRP) [1]) | binding result (alpha-fetoprotein (AFP)) | binding result [2] | binding result (C-reactive protein (CRP) [3])
1 | ATTAAAGCTCGCCATCAAATAGCTGC (ssDNA, 5'-NH2) [PSA aptamer] | no binding | – | – | –
2 | GTTGGGCACGTGTTGTCTCTCTGTGTCTCGTGCCCTTCGCTAGGCCCACA (ssDNA, 3'-NH2 (sequence line; text also says 5' amino)) [AFB1 aptamer] | no binding | – | – | –
3 | ATACCAGCTTATTCAATT (ssDNA, 3'-NH2 (sequence line; text also says 5' amino)) [CEA aptamer] | no binding | – | – | –
4 | CGAAGGGGATTCGAGGGGTGATTGCGTGCTCCATTTGGTG (ssDNA, 5'-NH2) [CRP aptamer] | – | no binding | no binding | binds
